Assay results published in the nanobody polyreactivity screen of Harvey et al. (2022).

Experiment: yeast display, Sf9 membrane polyspecificity reagent, FACS + sequencing; frameworks hold sequencing errors
Outline: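 After 36–48 hours of galactose induction, yeast (Saccharomyces cerevisiae BJ5465) displaying a synthetic nanobody library were stained at 4 °C for 1 hour with 10% biotinylated, detergent-solubilized Sf9 membrane reagent. Streptavidin microbeads enriched the stained cells before FACS sorting into low and high (top ~1%) gates on anti-HA and streptavidin fluorescence. Each clone's polyreactivity label reflects its gate of origin.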

| Sequence | polyreactivity (PSR sort gate) |
| --- | --- |
| QVQLVESGGGLVQAGGSLRLSCAASGSIFGLYAMGWYRQAPGKERELVAAISASGGSTYYADSVKGRFTISRDNAKNTVYLQMNSLKPEDTAVYYCAKKQRYYGRMDYWGQGTQVTVSS | high polyreactivity |
| QVQLVESGGGLVQAGGSLRLSCAASGSIFGLYTMGWYRQAPGKERELVAAISSVGSTYYADSVKGRFTISRDNAKNTVYLQMNSLKPEDTAVYYCNVYSRTHYQTYTDDYWGQGTQVTVSS | high polyreactivity |
| QVQLVESGGGLVQAGGSLRLSCAASGSIFGNAMGWYRQAPGKEREFVAAISSSGSSTYYADSVKGRFTISRDNAKNTVYLQMNSLKPEDTAVYYCAKRRRSAAPKYDYWGQGTQVTVSS | high polyreactivity |
| QVQLVESGGGLVQAGGSLRLSCAASGSIFGPSAMGWYIQAPGKERDLVAGITRSVGSTYYADSVKGRFTISRDNAKNTVYLQMNSLKPEDTADYYCNAKWLYSRWAGYDYWGQGTQVTVSS | low polyreactivity |
| QVQLVESGGGLVQAGGSLRLSCAASGSIFGPYAMGWYRPAPGKEREFVAAISGSGGSTYYEDSVKGRFTISRDNAKNTVYLQKNSLTPEDTAVYYCAARQAYVNRGRFRGATLDYWGQGTQVTVSS | high polyreactivity |
| QVQLVESGGGLVQAGGSLRLSCAASGSIFGPYAMGWYRQAPGKERELVAAISLGGGSTSYADSVKGRFTISRDNAKNTVYLQMNSLKPEDTAVYYCATEDFRTDTGMYYWGQGTQVTVSS | low polyreactivity |
| QVQLVESGGGLVQAGGSLRLSCAASGSIFGQYAMGWYRQAPGKERELVAAISTRGGSTRYADSVKGRFTISRDNAKNTVYLQMNSLKPEDTAVYYCAARPGYLYDYWGQGTQVTVSS | high polyreactivity |
| QVQLVESGGGLVQAGGSLRLSCAASGSIFGQYAMGWYRQAPGKERELVAAITDTGDSTYYADSVMGRFTISRDNAKNTVYLQMNSLKPEDTAVYYCAADVYYAFGSMYYWGQGTQVTVSS | low polyreactivity |
| QVQLVESGGGLVQAGGSLRLSCAASGSIFGRNAMGWYRQAPGKDRELVAAINSGGSTNYADSVKGRFTISRYNAKNTVYLQMNSLKPEDTAVYYCAARTYSSGRYYGYVAFYYWGQGTQVTVSS | high polyreactivity |
| QVQLVESGGGLVQAGGSLRLSCAASGSIFGRYAMGWYRQAPGKERELVAAISYSGGSTYYADSVKGRFTISRDNAKNTVYLQMNSLKPEDTAFYYCAAETSYYTRWFDGHYYYWGQGTQVTVSS | high polyreactivity |
| QVQLVESGGGLVQAGGSLRLSCAASGSIFGRYGAMGWYRQAPGKDRELVAAIRTSGVSTYYADSVKGRYTISRDNAKKTVYLQMNSLKPEDTAVYYCAKGYTSYNLGKYGYWGQGTQVTVTS | high polyreactivity |
| QVQLVESGGGLVQAGGSLRLSCAASGSIFGRYVMGWYRQAPGKERELVATISSGGSTYYADSVKGRFTISRDNAKNTVYLQMNSLKPEDTAVYYCAASYSRFVDWIGDPGYDYWGQGTQVTVSS | low polyreactivity |
| QVQLVESGGGLVQAGGSLRLSCAASGSIFGSNAMGWYRQAPGKEREFVAAIDWGGTITYYADSVKGRFTISRDNAKNTVYLQMNSLKPEDTAVYYCAADPTYPYGYWGQGTQVTVSS | low polyreactivity |
| QVQLVESGGGLVQAGGSLRLSCAASGSIFGSNAMGWYRQAPGKEREFVAVITWRVGDTYYADSVKGRFTISRDNAKNTVYLQMYSLKPEDTAVYYCNVDWKVYGAPDYRIAWKYDYWGQGTQVTVSS | low polyreactivity |
| QVQLVESGGGLVQAGGSLRLSCAASGSIFGSNAMGWYRQAPGKERELVAAISSGSTYYADSVKGRFTISRDNAKNTVYLQMNSLKPEDTAVYYCNARSLLYEFDYWGQGTQVTVSS | low polyreactivity |
| QVQLVESGGGLVQAGGSLRLSCAASGSIFGSNAMGWYRQAPGKERELVAVITNGGRTYYADSVKGRFTISRDNAKNSVYLQMNSLNPEDTAVYYCAASRVYGWYGSYSTYGSWGQGTQVTVSS | high polyreactivity |
| QVQLVESGGGLVQAGGSLRLSCAASGSIFGSNAMGWYRQARGKERELVASISKRGGSTYYADSVKGRFTISRDNAKNTVYVQMNSLKPEDTAVYSCAARSYYNGKISRVGYWGQGTQVTVSS | high polyreactivity |
| QVQLVESGGGLVQAGGSLRLSCAASGSIFGSYAMGWYRQAPGKERELVAAIRSGGGTYYADSVKGRFTISRDNAKNTVYLQMNSLKPEDTAVYYCAAGDGFYFSFYIYDYWGQGTQGTVSS | low polyreactivity |
| QVQLVESGGGLVQAGGSLRLSCAASGSIFGSYAMGWYRQAPGKERELVAAISRSGGRTYYADSVKGRFTISRDNAKYTVYLQMNSLKPEDTAVYYCAADTYIGYDYWGQGTQVTVSS | high polyreactivity |
| QVQLVESGGGLVQAGGSLRLSCAASGSIFGTNGMGWYRQAPGKERELVAAITRRGGSTYADSVKGRFTISRDNAKNTVYLQMNSLKPEDTAVYYCAVDQGYVVRLAWIYGYWGQGTQVSVSS | low polyreactivity |
| QVQLVESGGGLVQAGGSLRLSCAASGSIFGTNTMGWYRQAPGKEREFVAVITGSTTSTYYADSVKGRFTISRDNAKNTVYLQMNSLKPEDTAVYYCPTDYWWDLFEYDYWGQGTQVTVSS | high polyreactivity |
| QVQLVESGGGLVQAGGSLRLSCAASGSIFGTYAMGWYRQAPGKAREFVADISAIGTSTYYADSVKGRFTISRDNAKNTVYLQMNSLKPEDTAVYYCAAESFDTVEYDYWGQGTQVTVSS | low polyreactivity |

| Sequence | polyreactivity (PSR sort gate) |
| --- | --- |
| QVQLVESGGGLVQAGGSLRLSCAASGSIFGTYPMGWYRQAPGKERELVAAITRRGGSTFYADSVKGRFTISRDNAKNTVYLQMNSLKPEDTAVYYCAAPPYYWGQGTQVTVSS | high polyreactivity |
| QVQLVESGGGLVQAGGSLRLSCAASGSIFGTYTMGWYRQAPGKERELVAAISRSGTSTYYADSVKGRFTISRDNAKNTVYLQMNSLKPEDTAVYYCAASPDPYWRRMDYWGQGTQVTVSS | high polyreactivity |
| QVQLVESGGGLVQAGGSLRLSCAASGSIFGTYTMGWYRQAPGKERELVASISRRGGSTYYADSVKGRFTISRDNAKNTVYLQMNSLKPEDTAVYYCAKPVYYLPGEYDYWGQGTQVTVSS | high polyreactivity |
| QVQLVESGGGLVQAGGSLRLSCAASGSIFGVNAMGWYRQAPGKERELVAAISRGTSTSYADSVKGRFTISRDNAKNTVYLQMNSLKPEDTAVYYCAAEVYWRGWWYGYWGQGTQVTVSS | high polyreactivity |
| QVQLVESGGGLVQAGGSLRLSCAASGSIFGVYAMGWYRQAPGKERELVAAISQSGGRTYYADSVKGRFTISRDNAKNTVYLQMNSLKPEDTAVYYCAAVVFNVYRRYWGQGTQVTVSS | high polyreactivity |
| QVQLVESGGGLVQAGGSLRLSCAASGSIFGVYDMGWYRQAPGKERELVAVINSNGGSTYYADSVKGRFTISRDNAKNTVYLQMNSLNPEDTAVYYCAADYQSYVYIGYGYWGQGTQVTVSS | low polyreactivity |
| QVQLVESGGGLVQAGGSLRLSCAASGSIFGVYTMGWYRQAPGKERELVAAITSAGSTYAYSVKGRFTISRDNAKNTVYLQMNSLKPEDTAVYYCNAQSVLLSLRVELREPHEYWGQGTQVTVSS | low polyreactivity |
| QVQLVESGGGLVQAGGSLRLSCAASGSIFGWNTMGWYRQAPGKERELVAAITWTGGRTYYADSVKGRFTISRDNAKNTVYLQMNSLKPEDTAVYYCNALRVIRGGIKGDYWGQGTQVTVSS | high polyreactivity |
| QVQLVESGGGLVQAGGSLRLSCAASGSIFGWYAMGWYRQAPGKERELVAAISSSDGSTYYADSVKGRFTISRDNAKNTVYLQMNSLKPEDTAVYYCATDSAFTYAQYDYWGQGTQVTVSS | low polyreactivity |
| QVQLVESGGGLVQAGGSLRLSCAASGSIFGWYAMGWYRQAPGKVRELVATITDRGGRTYYADSVKGRFTISRDNAKNTVYLQMNSLTPEDTAVYDCAADAWPFEAESDSWGQGTQVTVSS | low polyreactivity |
| QVQLVESGGGLVQAGGSLRLSCAASGSIFGWYVMGWYRQEAGKERELVAANSSVGSTYYADSVKGRFTISRDNAKNTVYLQMNSLKPEDTAVYYCAKLRYPYLFWDDSEYWGQGTQVTVSS | low polyreactivity |
| QVQLVESGGGLVQAGGSLRLSCAASGSIFGYAMGWYRQAPGKARELVAAISFSGVSTYYADSVKGRFTITRDNAKNTVYLQMNSLKPEDTAGYYCNAYSDGDEDYWGQGTQVNVSS | low polyreactivity |
| QVQLVESGGGLVQAGGSLRLSCAASGSIFGYAMGWYRQAPGKERELVAAITVSGGRTYYADSVKGRFTISRDNAKNTVYLQMNSLKPEDTAVYYCAAYYIKGYSPGYWGQGTQVTVSS | high polyreactivity |
| QVQLVESGGGLVQAGGSLRLSCAASGSIFGYNAMGGYRHAPGKEREFVAAINSGGSTYYADSVKGRFTISRDNAKITVYLQLNSLKPEDTAVYYCRRRNVYSTRRYEYWGQGTQVTVSS | high polyreactivity |
| QVQLVESGGGLVQAGGSLRLSCAASGSIFGYNAMGWYRQAPGKERELVAAINYNGGRTYYADSVKGRFTISRDNAKNTVYLQMNSLKPEDTAVYYCATQGRSLYYRYDYWGQGTQVTVSS | high polyreactivity |
| QVQLVESGGGLVQAGGSLRLSCAASGSIFGYNAMGWYRQAPGKERELVAAIRRSGSSTYYADSVKGRFTISRDNAKNTVYLQMNSLKPEDTAVYYCNRVPRPVADQEYDYWGQGTQVTVSS | low polyreactivity |
| QVQLVESGGGLVQAGGSLRLSCAASGSIFGYNAMGWYRQAPGKERELVAAISLSGSSTYYADSVKGRFTISRDNAKNTVYLQMNSLKPEDTAVYYCAALYQWRRVFYTSYGYWGQGTQVTGSS | high polyreactivity |
| QVQLVESGGGLVQAGGSLRLSCAASGSIFGYNAMGWYRQAPGKERELVAAISLTTGSTYYADSVKGRFTISRDNAKNTVYLQMNSLKPEDTAVYYCAAVDADYYYWGQGTQVTVSS | high polyreactivity |
| QVQLVESGGGLVQAGGSLRLSCAASGSIFGYNDMGWYRQAPGKERELVAAITTSGDSTYYADSVKGRFTISRDNAKNTVYLQMTSLKPEDTAVYYCNGDGEVVDWYHPYYVEYDYWGQGTQVTVSS | low polyreactivity |
| QVQLVESGGGLVQAGGSLRLSCAASGSIFGYNTMGWYRQAPGKERDLVADISVSGDDTYYADSVKGRFTISRDNAKITVYLQMNSLKPEDTAVYYCNADEYYGYYHTYDYWGQGTQVTVSS | low polyreactivity |
| QVQLVESGGGLVQAGGSLRLSCAASGSIFGYNVMGWYRQAPGKERELVAAINYSGGRTYYADSVKGRFTISRDNAKNTVYLEMNSLKPEDTAVYYCAAVPLSRYTVFNYDYWGQGTQVTVSS | high polyreactivity |
